Assay results reported in PMC7291361 (ACS infectious diseases, 2020).

Target: H4 NB-10 HA full length soluble ectodomain (FLsE) (Influenza A virus A/American black …, UniProt M1UPL4, strain)
Assay: ELISA

B1: K03.12 IgG (antibody, V domains shown)
VH: QVQLVQSGAEVKKPGASVKVSCKTSGYTFTAYYLHWVRQAPGQGFEWMAWINPNTGDTNYAQKFQGRVTLSRDTSITTAYMELTRLRSDDTAVYYCAKDLTLMYVFDSGWARGAHDYYGMDVWGQGTTVAVSG
VL: PSALTQPASVSGSPGQSVTISCTGTNSDVGTFDLVSWYQQYPGKAPKLIIYEGSRRPSGVSDRFSGSKSGNTASLTISGLQAEDEADYYCSSYAGSVVFGGGTKLTVL
- binding result: no binding (tested: 1 μM IgG)
